Experimental findings from paper PMC10145556 are described below.

For this experiment, the target named is T1, LHRH receptor (LHRH-R) (human (endogenous in MCF-7 and Hs68)) (UniProt P30968).
T1 sequence: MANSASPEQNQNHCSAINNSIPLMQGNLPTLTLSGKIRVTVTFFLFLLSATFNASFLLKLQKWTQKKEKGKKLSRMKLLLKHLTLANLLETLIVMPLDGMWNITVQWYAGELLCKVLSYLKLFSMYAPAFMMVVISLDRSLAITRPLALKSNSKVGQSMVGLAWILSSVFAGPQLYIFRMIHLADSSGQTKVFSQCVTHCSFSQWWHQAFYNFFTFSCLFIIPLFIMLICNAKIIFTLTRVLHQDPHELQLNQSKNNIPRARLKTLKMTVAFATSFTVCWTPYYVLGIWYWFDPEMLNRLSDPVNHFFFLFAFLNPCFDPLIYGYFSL

B1: LHRH-BinBC (luteinizing hormone-releasing hormone peptide fused through a GSG linker to the N-terminus of the pore-forming C-terminal domain of BinB) (protein)
chain: QHWSYGLRPGGSGIPQLPQTSLLENIPEPTSLDDSGVLPKDAVRAVKGSALLPCIIVHDPNLNNSDKMKFNTYYLLEYKEYWHQLWSQIIPAHQTVKIQERTGISEVVQNSMIEDLNMYIGADFGMLFYFRSSGFKEQITRGLNRPLSQTTTQLGERVEEMEYYNSNDLDVRYVKYALAREFTLKRVNGEIVKNWVAVDYRLAGIQSYPNAPITNPLTLTKHTIIRCENSYDGHIFKTPLIFKNGEVIVKTNEELIPKINQ
In the case of B1, the IC50 of inhibition of MCF-7 cell proliferation (MTT assay, 48 h, 1-16 μM LHRH-BinBC) was determined as 11 µM.
